Data from a protein production outcome set (Wang et al. 2014).

assay: label from the status in PepcDB records

Question: With “AKSEMAFAGKGEISPRAITMWDFSWLERRWPGAGYEDWDQVLDELSERGYNAIRIDAYPHLIAENPMKKWLLKEVWNQQDWGSPDMNEVQVQPNLNLFLSKCKERDIKVGLSSWYRLDVDEVCLKLDTPEKLADCWLTILRSIEEDGLLDTILYVDLCNEWPGDSWAPFFAKTYPNVGWGNWYKEESLRWMKTSLEKMRQVYPDMPFLYSFDHGDVKKYEEVDCSFLDLYEHHIWMAQQNGGEFYKLVGYGYNRFLPDDYKNVVKNAERVYRERPGYWQKLLTDKIELMASVARKNRRPLVTTECWGLVDYKDWPLLKWDWVKDLCELGTITAARTGMWVGVATSNFCGPQFAGMWRDVEWHKRLTSIIRSSPLDESLTKNNEVAAKLLKRL” as the sequence, how does the protein production read?
Answer: not failed

Question: Which protein production does the source give for “ALRERSEGLVLIGRRHLRSNNSWLHNVPALTGGTNRCTLHIHPEDAERLGLTDGAPVRVRGAGGAVTAPVEVTDGIRRGVVSLPHGWGHDRPGTRMSHAALDPGVNVNQLLDGSLLDPLSGNAVLNGVPVELTRT” here?
Answer: failed

Question: For “AMPIAKAIEEKWGVPAEVVIAQAALESGWGKHVKGNAYFGIKGKGSQGSINFGTHEVINGKKISINDNFASYGGFGDAANGYGEFLNKNKRYREAFKHKDNPVEFAKAIARAGYATDPDYANKLTKIIQSNKFS”, which protein production is on record?
Answer: not failed

Question: Which protein production does the source give for “ANVKLLLPYILKWEGGFVHDPADAGGATNKGVTIATWKRVGYDKDGDGDIDVEDLKLLTDDDVLNRVLKPFYWDRWKADLIESQKVANILVDWVWGSGKYGIVIPQRILGVQADGIVGNKTLQAVNSADPDELFESIFDARREFLEDITARSIKKYEDSIGRKATERELLRHTNKRFLRGWLNRLEDIRKL” here?
Answer: not failed

Question: With “AQAEVRIDGPIEYGVFESRYQDFQPGERVLTRSEQNIQQTTEVPAKLGTKFGMRYQLSGKQEGDTPLTLLYLTPGVVTPDGQRHDKFEVVQKLVPGAPTDVMAYEFTEPHEVVKGEWRLMVFQGDRLLAEKSFDVR” as the sequence, how does the protein production read?
Answer: not failed

Question: Which protein production does the source give for “AQNQDCAFFFPNQEGEQITRNCYTADGKLTNILVYRVDQAYEYPSGMEVVANYTFADAAGKTLNSGQMVARCSDGNFSMSMGDVATFPTALNMMNADVYMMGDLMNYPDAFSNPMNPGDDDEFDDGTLRLYQKGNKNNRAEISVFDREFVTTETVNTPAGAFYCTKVKYEMNIWTPKETIKGYGYEWYAPNIGIVRSEQYNNKKELQSYSVLERIKK” here?
Answer: not failed

Question: For “ARRASAGELDAAVMHELAPLKMERAVFQTRITEGEPGPEGRDAVAFEVATNPGAPAGPLNRIASGGELSRFLLALKVCLRGDDGGKTMIFDEIDRGVGGATADAVGRRLEALAGAGQVLVVTHSPQVAARGVHHWRV”, which protein production is on record?
Answer: failed

Question: Which protein production does the source give for “ARTYRGVELIPVENIYYFLADQKYVTVRHKNGSVLIDETLKELELEFQNRFIRIHRNALVSVDYLDGLEVISSGQYQVRCREVNERLAVSRRHLPYLRDRMQKM” here?
Answer: failed

Question: For “ASETQQWKTLEDTRSALMGVYGLTRAALADNNTHWICGDLRKGDFTVYKRSDLQAVSDNELNKPYDLLKKVSNWRRFYAVINAASVFMEKAPRTVELDRSYSEQNLKYDIAQVRALRAFAYFYMVRIWGDVPLVTYSYDNGTFPSMPRTDAQTVLSYAKAELLTAIEDLPYQYGTQTNLYYGSYGAQWQGKLFNKLSAYSVLAHICAWQGNYAEAETYSAFIIDHASEINAKYTSIADLTSETGLFYSNASVKGSRILGFNFAHNDNEATQSGHLEQLTLAYPLVQKSYPEIYISKDSLFSIFTNFDDLRFGIIDTIKYSSYYVQNLNEETPVFSKIKIIQDGSAKDNDFGVFGSSIVFTRLEDITLLRAEALCALNRSTEAVSYLNMIRTNRGLREVSFKKDFGNNRESLIAEIFEERRRELMGEGWRWYDLVRRQKLMKDNEAFLRLISSGGIYWPVSEDIITANSQIEQNEFWK”, which protein production is on record?
Answer: not failed

Question: With “ASHLQFVQPKKAPPLSVSLIQGNIPQDLKWLTEYQFKTLMIYANLTRSEWGRDLIVWPESSIPMFQTDIQPFLDAMNQQAKNRGSAWVTGIPYWDVTGSREVGTPLYYNSIMASGDNSQGLYKKQRLVPFGEYIPLSGLLSWVLPALQNDPSMSGFSQGSNNQKPLMIKGHRLAAAICYEVAYPNLTRRNAENSDFLVTVSNDAWFTGTAGPMQHLQMVQMRAKENGRWFIRATNTGVTAFIDSQGHIVKQAPIDKEAVLRGDLPAMQGETLYTRLSDWPILLFSVLLLILGWIYRPRQVDVSFKSRR” as the sequence, how does the protein production read?
Answer: failed

Question: For “ASNTNLIVNYLPQDMTDRELYALFRAIGPINTCRIMRDYKTGYSYGYAFVDFTSEMDSQRAIKVLNGITVRNKRLKVSYARPGGESIKDTNLYVTNLPRTITDDQLDTIFGKYGSIVQKNILRDKLTGRPRGVAFVRYNKREEAQEAISALNNVIPEGGSQPLSVRLA”, which protein production is on record?
Answer: not failed

Question: With “ASRPHQWQTDEEGVRTGKCSFPVKYLGHVEVDESRGMHICEDAVKRLKATGKKAVKAVLWVSADGLRVVDEKTKDLIVDQTIEKVSFCAPDRNFDRAFSYICRDGTTRRWICHCFMAVKDTGERLSHAVGCAFAACLERKQKR” as the sequence, how does the protein production read?
Answer: not failed

Question: Which protein production does the source give for “ATAPTPASSETLSGNPALPPPVPGERHDIDSFGGRLTYWSAAPAEPTSEPPLLLIHSVNAAGSAYEVRPIFEHYARSRPVYAIELPGFGHSSRAKRQYTIRMMTDAVHSVVAEIQKVHADKRIDALALSLGSEFLARAASETPQAFRSLALVAPTGFDKKNQRWTAGSRAIPWLHSFFENPVWSESIFKLLTMKPVIGWFLKKAFGSPSIDQGMLDYDYLTTHQPGAQHAPYYFVSGYLFSQDILRIYQDLPMPVWFSHGVRGDFVDYTLKTTVEGRPNWTVTVFQTGAMPHFEVPGEFMRAYDEFLGRVTKA” here?
Answer: failed

Question: With “ATDSATAAPAAAATTQVQKEAADVLQVAVQGANAMRDIQFARLALFHGQPDSAKKLTDDAAALLAADDASWAKFVKTDAKAKMIADRYVIINASIALSEDYVATPEKESAIQSANEKLAKGDQKGAIDTLRLAGIGVIENQYLMPLNQTRKAVAQSQELLKAGKYYEANLVLKGAEEGIVVDSEMLVAGN” as the sequence, how does the protein production read?
Answer: not failed

Question: For “ATTMEQETCAHSLTFEECPKCSALQYRNGFYLLKYDEEWYPEELLTDGEDDVFDPELDMEVVFELQGNSTSSDKNNSSSEGNEGVIINNFYSNQYQNSIDLSANAAGSDPPRTYGQFSNLLSGAVNAFSNMLPLLADQNTEEMENLSDRVSQDTAGNTVTNTQSTVGRLVGYGTVHDGEHPASCADTASEKILAVERYYTFKVNDWTSTQKPFEYIRIPLPHVLSGEDGGVFGAALRRHYLVKTGWRVQVQCNASQFHAGSLLVFMAPEYPTLDAFAMDNRWSKDNLPNGTRTQTNKKGPFAMDHQNFWQWTLYPHQFLNLRTNTTVDLEVPYVNIAPTSSWTQHASWTLVIAVVAPLTYSTGASTSLDITASIQPVRPVFNGLRHETLSRQ”, which protein production is on record?
Answer: not failed

Question: With “AVDLNKENRDPKYVESIVNRSQKIVDKLGLTDAKVAEDVCNVIANRYFELNDIYEIRDAKVKAVKESGLTGDAKNEALKAAENEKDAALYRSHFAFPASLSLFLNEEQIEAVKDGMTYGVVKVTYEATLDMIPSLKEEEKVQIYAWLVEAREFAMDAENSNKKHAAFGKYKGRINNYLAKRGYNLTKEREEWAKRVKARGGTL” as the sequence, how does the protein production read?
Answer: not failed

Question: For “AWAGLQTKHLKVGDIEWVYSESGNSSKPTIILIHGLAGSRDNWNRVAYNLTPYYHVIIPDLPAHGDTKIPNDFDLSIPNLTEKLRRFAEAGHFEKNVHIAGHSMGGAIALLYTAQYPLETKSLLLVDSAGVFKTANTPYLKDPNLLNNLVVKKTGDFDKLFKLATASPPFIPVELKTEQEKLMIAQSKNTQKMVDQLVAMSKIYTPDTFAIATKSIDVPTYIIWGDQDKIINVEAAQELKSLLKNAETPYILKGVGHMPILEADQLVSQQYLIFLNK”, which protein production is on record?
Answer: failed

Question: Which protein production does the source give for “AWGLAATGKEFLWVMRPDSVAGEEAVIPKEFLAETADRRMLTSWCPQEKVLSHPAVGGFLTHCGWNSTLESLSCGVPMVGIEIGGDVKRGEVEAVVRELMDGEKGKKMREKAVEWRRLAEKATKLPCGSSVINFETIVNKVLLGKIPNT” here?
Answer: failed

Question: For “AYPDFAPQKFKEKTQGQVKILEDSFLKSSFPTQAELDRLRVETKLSRREIDSWFSERRKLRDSMEQAVLDSMGSGK”, which protein production is on record?
Answer: not failed

Question: For “CASRQEHSLRIIHTTDLHGNVFPTDFKALRPTSGGMSRLASFLKAARSDRSELLLFDGGDVLQGDPTAYYYNYMDTTGTHLFSRAMNYLRYDAAIPGNHDIETGHAVYDKWVAGCDFPFLAANAIDTETGKPYWAPYKVFDRNGLRVALLGFITPAIPEWLPQSLWTGMRFDDIIESAKYWVPFVIQKEKPDFVVCVLHSGRENDNSNYLEDAGMTLAREVAGIDVLLLGHDHQEYSRRVKGAEADSVLVLNPANHLDKVSDVRLSLARKGDKVLHKRVEGGLTDISRLTPDSAFMAHFSSDEAAVRRFVNE”, which protein production is on record?
Answer: failed

Question: For “CLVDPHTVLPSPISGPTETIRSLRRCAAAGGYGQVALLPRGQSWRDQPERLIGLQNADPSSVHLPLWGGFSLNGKGDELAPHGDLLEHGAIGLADDDAVVPLPLLERGLLLGEMGSCPVLIAPRDPNLQGDGLAREGVETLRAGWAPDPLISELLPLQQLLALQQRHPDRQLRLMNISTAAAVDLLGQADPQLKASVCWWHLLVDGSSLSSTDPGCRVRPSLGGAADRLRLRSALQSGLIQAVAVHAVPLDEEDMLLPADQRPPGLSGHHLVMPALWSALVDQGDLSIESLWELLSFGPSAFLDQP”, which protein production is on record?
Answer: failed

Question: Which protein production does the source give for “CRLLWDYVYQLLSDSRYENFIRWEDKESKIFRIVDPNGLARLWGNHKNRTNMTYEKMSRALRHYYKLNIIRKEPGQRLLFRFMKTPDEIMSGRTDRLEHLESQEL” here?
Answer: not failed

Question: Which protein production does the source give for “CSDLPEIQNGWKTTSHTELVRGARITYQCDPGYDIVGSDTLTCQWDLSWSSDPPFCEKTEE” here?
Answer: not failed

Question: Which protein production does the source give for “CTRAVYLGPDRMVVTGRTMDWKEDIMSNIYVFPRGMQRAGHNKEKTVNWTSKYGSVIATGYDIGTCDGMNEKGLVASLLFLPESVYSLPGDTRPAMGISIWTQYVLDNFATVREAVDEMKKETFRIDAPRMPNGGPESTLHMAITDETGNTAVIEYLDGKLSIHEGKEYQVMTNSPRYELQLAVNDYWKEVGGLQMLPGTNRSSDRFVRASFYIHAIPQTADAKIAVPSVLSVMRNVSVPFGINTPEKPHISSTRWRSVSDQKNKVYYFESTLTPNLFWLDLKKIDFSPKAGVKKLSLTKGEIYAGDAVKDLKDSQS” here?
Answer: not failed

Question: Which protein production does the source give for “DAALCAFDADGVVTHWNREAERILGWTAAEAVGRRGFAGWAVRTADAEDVEARLMTAMQAPGRQVHEFALLTKDGGRVLVRTQSAAVHGPDGKPAGVYCAFSEVH” here?
Answer: not failed

Question: Which protein production does the source give for “DAFTDQKIRQRYADLPGELHIIELEKDKNGLGLSLAGNKDRSRMSIFVVGINPEGPAAADGRMRIGDELLEINNQILYGRSHQNASAIIKTAPSKVKLVFIRNEDAVNQMA” here?
Answer: not failed

Question: Which protein production does the source give for “DAGGGVGKELVDLKIIWNKTKHDVKVPLDSTGSELKQKIHSITGLPPAMQKVMYKGLVPEDKTLREIKVTSGAKIMVVGSTI” here?
Answer: not failed

Question: With “DDFVSLGTSGWHARVVSTVSDPSEVRQFALPDGGILRIASVLSVGGTADWARSVLLPGVSAKEADALMLQRPRLATGLLSLPSIQGESFPVRSHSVGGCILGMRGNQDPLTLYTAVIEGICMTLAHDIKPGGILPATGGGARSVPWMRILASVTNRNIHVTVSEDAALHGAASLAAYATSAEYLPTLAARAIVEIEPEPEVVASFEPLIAKHLELFRFAAALSY” as the sequence, how does the protein production read?
Answer: failed

Question: For “DGRIFKMFIEHLEFEKGLDAFSQSWIKALEDSEFLAILRLLFHHIVTSESAHEFAANGIDRLYKMVESQFGSGGDKELEWLIGRSLIQMSK”, which protein production is on record?
Answer: not failed

Question: For “DIGGITGSFYLNTNALPTNADKIKSLILEVIEQCQIKSDDVVLYGCSKGGTAAVYHGLTNNYKIVAV”, which protein production is on record?
Answer: failed

Question: With “DILVFTPRKSDAGISVILYPGAFVDALSYAPLANKLASSGYKTYIAEMPLNLAVFGKNRAADIIDEAPDEKFVIGGHSLGGVMSSRFAHENESEIEGVFFLASYPDKKGSLKNASFPALSITGTKDDVLNKDAYDKNKKYLPKDTTFVSIEGGNHAQFGSYGAQHGDGKATISEAEQTDQVSNALIAWLNTSVKNQE” as the sequence, how does the protein production read?
Answer: not failed
